Test results reported in paper doi:10.1101/2024.11.10.622873 (bioRxiv, 2024).
Where two headings read alike, the source gives them in different places.

B1: COP-1, synthetic antibody fragment (sFab), with C-terminal histidine tag (Fab, V domains shown)
VH: EVQLVESGGGLVQPGGSLRLSCAASGFNFSSSYIHWVRQAPGKGLEWVASISSSSGSTSYADSVKGRFTISADTSKNTAYLQMNSLRAEDTAVYYCARWFHPWWWWEYLFRGAIDYWGQGTLVTVSS
VL: DIQMTQSPSSLSASVGDRVTITCRASQSVSSAVAWYQQKPGKAPKLLIYSASSLYSGVPSRFSGSRSGTDFTLTISSLQPEDFATYYCQQSSSSLITFGQGTKVEIK

Tests used:
Experiment in all cases: BLI
[1] = biological target: COP-1, synthetic antibody fragment (sFab), with C-terminal histidine tag
[2] = biological target: COP-1, synthetic antibody fragment (sFab), with C-terminal histidine tag; remark: listed apart in the source
[3] = biological target: human claudin-18 splice variant 18.1 (human, UniProt P56856)
[4] = biological target: human claudin-18 splice variant 18.2 (human, UniProt P56856-2)
human claudin-19 = human claudin-19 (human, UniProt Q8N6F1)
Sequence of human claudin-19 (Q8N6F1 whole entry): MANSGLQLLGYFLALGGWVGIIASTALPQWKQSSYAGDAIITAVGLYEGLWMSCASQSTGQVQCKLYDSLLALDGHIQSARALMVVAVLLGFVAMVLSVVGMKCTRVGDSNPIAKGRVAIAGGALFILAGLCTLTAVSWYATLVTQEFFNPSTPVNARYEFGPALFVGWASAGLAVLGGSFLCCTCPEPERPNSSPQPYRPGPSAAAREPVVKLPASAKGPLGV

murine claudin-15 = murine claudin-15 (mouse, UniProt Q9Z0S5)
Sequence of murine claudin-15 (Q9Z0S5 whole entry, the tested form may be a part): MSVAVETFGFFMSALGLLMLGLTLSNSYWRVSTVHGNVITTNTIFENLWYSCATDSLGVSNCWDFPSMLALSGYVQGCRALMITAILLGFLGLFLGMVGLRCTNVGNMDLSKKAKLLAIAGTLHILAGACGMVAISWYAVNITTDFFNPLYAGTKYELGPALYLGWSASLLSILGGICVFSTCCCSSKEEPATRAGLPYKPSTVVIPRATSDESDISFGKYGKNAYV

[5] = biological target: C-terminal domain of Clostridium perfringens enterotoxin, in solution (Clostridium perfringens, UniProt P01558)
Sequence of C-terminal domain of Clostridium perfringens enterotoxin, in solution (P01558 198-319): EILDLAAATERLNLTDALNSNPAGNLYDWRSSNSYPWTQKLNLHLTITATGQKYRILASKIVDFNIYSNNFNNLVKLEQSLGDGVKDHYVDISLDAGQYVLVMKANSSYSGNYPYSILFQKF

human occludin = human occludin (Homo sapiens, UniProt Q16625)
[6] = biological target: human junctional adhesion molecule-A (Homo sapiens, UniProt Q9Y624)
human claudin-1 = human claudin-1 (human, UniProt O95832)
Sequence of human claudin-1 (O95832 whole entry): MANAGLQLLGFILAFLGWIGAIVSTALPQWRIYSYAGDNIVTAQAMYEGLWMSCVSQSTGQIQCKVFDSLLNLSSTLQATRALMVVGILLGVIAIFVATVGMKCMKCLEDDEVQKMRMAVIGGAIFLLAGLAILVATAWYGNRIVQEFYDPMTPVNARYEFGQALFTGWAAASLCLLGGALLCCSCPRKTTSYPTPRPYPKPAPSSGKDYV

human claudin-3 = human claudin-3 (human, UniProt O15551)
Sequence of human claudin-3 (O15551 whole entry): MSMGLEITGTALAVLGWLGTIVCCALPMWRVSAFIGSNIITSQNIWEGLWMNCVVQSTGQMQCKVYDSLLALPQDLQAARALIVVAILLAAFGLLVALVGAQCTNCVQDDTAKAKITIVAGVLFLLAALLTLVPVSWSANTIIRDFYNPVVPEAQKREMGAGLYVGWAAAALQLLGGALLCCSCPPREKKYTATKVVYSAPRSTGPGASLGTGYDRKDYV

human claudin-5 = human claudin-5 (human, UniProt O00501)
Sequence of human claudin-5 (O00501 whole entry): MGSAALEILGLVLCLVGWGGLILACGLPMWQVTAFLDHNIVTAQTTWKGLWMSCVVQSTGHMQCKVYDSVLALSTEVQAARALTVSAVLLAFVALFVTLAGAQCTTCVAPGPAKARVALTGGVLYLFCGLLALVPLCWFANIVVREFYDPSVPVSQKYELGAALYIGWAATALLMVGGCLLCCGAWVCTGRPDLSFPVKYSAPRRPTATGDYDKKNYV

human claudin-6 = human claudin-6 (human, UniProt P56747)
Sequence of human claudin-6 (P56747 whole entry): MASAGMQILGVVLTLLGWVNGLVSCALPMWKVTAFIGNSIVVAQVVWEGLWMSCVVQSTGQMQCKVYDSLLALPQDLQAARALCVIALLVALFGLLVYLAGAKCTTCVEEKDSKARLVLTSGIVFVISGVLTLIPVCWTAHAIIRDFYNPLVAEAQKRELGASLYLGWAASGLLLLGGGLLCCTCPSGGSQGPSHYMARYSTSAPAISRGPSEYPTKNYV

human claudin-9 = human claudin-9 (human, UniProt O95484)
Sequence of human claudin-9 (O95484 whole entry): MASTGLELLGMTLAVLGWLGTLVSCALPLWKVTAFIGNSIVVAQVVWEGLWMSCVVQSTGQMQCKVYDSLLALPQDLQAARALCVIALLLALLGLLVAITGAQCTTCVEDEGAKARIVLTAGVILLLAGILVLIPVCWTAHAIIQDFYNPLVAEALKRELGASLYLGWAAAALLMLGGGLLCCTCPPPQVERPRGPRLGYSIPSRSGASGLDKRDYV

human claudin-17 = human claudin-17 (human, UniProt P56750)
Sequence of human claudin-17 (P56750 whole entry): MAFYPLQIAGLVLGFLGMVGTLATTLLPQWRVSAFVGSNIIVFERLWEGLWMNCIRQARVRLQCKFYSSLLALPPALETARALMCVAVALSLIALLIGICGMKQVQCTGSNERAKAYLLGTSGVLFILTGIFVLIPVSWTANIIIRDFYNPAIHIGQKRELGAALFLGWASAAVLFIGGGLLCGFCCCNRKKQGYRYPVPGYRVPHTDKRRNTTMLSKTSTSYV

Molecule	Kd [1] [nM]	Kd [2] [nM]	t1/2 of the complex [2] [min]	Kd [3] [nM]	Kd [4] [nM]	Kd (human claudin-19) [nM]	Kd (murine claudin-15) [nM]	binding result [5]	binding result (human occludin)	binding result [6]	Kd (human claudin-1) [nM]	Kd (human claudin-3) [nM]	Kd (human claudin-5) [nM]	Kd (human claudin-6) [nM]	Kd (human claudin-9) [nM]	Kd (human claudin-17) [nM]
human claudin-4 (from UniProt O14493) (natural protein)	70.6	106	30	–	–	–	–	–	–	–	–	–	–	–	–	–
B1	–	–	–	92.4	66.4	62.2	59	no binding	no binding (tested: 500 nM)	no binding (tested: 500 nM)	61.3	57.9	75.8	59.5	66	80.2
